Test results as given in the nanobody polyreactivity screen of Harvey et al. (2022).

Test: yeast display, Sf9 membrane polyspecificity reagent, FACS + sequencing; frameworks hold sequencing errors
Outline: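 Nanobodies came from a synthetic yeast display library in Saccharomyces cerevisiae BJ5465, induced with galactose for 36–48 hours and stained for 1 hour at 4 °C with 10% biotinylated, detergent-solubilized Sf9 membrane reagent. Cells were enriched on streptavidin microbeads and then FACS-sorted, with low and high (top ~1%) gates set on anti-HA fluorescence for expression and streptavidin fluorescence for reagent binding. Each polyreactivity label reflects the gate a clone came from. Genes were amplified by colony PCR, sequenced by MiSeq 2 × 250 and filtered by CDR length.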

Sequence	polyreactivity (PSR sort gate)
QVQLVESGGGLVQAGGSRRLSCAASGFFFDVNAMGWYRQAPGTEREWVATISKRGGTTYYADSVKGRFTISRDNAKNTVYLQMNSLKQEDTAVYYCAARHQSLRSYRYDYWGQGTQVTVSS	low polyreactivity
QVQLVESGGGLVQAGGSRRLSCAASGFIFTKYTMGWYRQAPGKERELVAAIRSDGVRTYYADSVKGRFTISRDNAKNTVYLQMNSLKPEDTAVYYCAARSLRYGRGMYYWGQGTQVTVSS	high polyreactivity
QVQLVESGGGLVQAGGSRRLSCAASGIIFAQYAMGWYRQAPGKERELVDSISGGGSTTNYADSVKGRFTISRDNAKNTVYLQMNSLKPEDTAVYYCAARTRRRGGIYDYWGQGTQVTVSS	high polyreactivity
QVQLVESGGGLVQAGGSRRLSCAASGIIFTRNSMGWYRQAPGKERELVAAISRSGGRTYYADSVKGRFTISRDNAKNTVYLQMNSLKPEDTAVYYCYPRDKNLQAYDYWGQGNQVTVSS	high polyreactivity
QVQLVESGGGLVQAGGSRRLSCAASGIIFYPNAMGWYRQAPGKERELVAAITSDGSTYYADSVKGRFTISRDNAKNTVYLQMNSLKPEDTAVYYCAAWDDYGYDYWGQGTQVTVSS	low polyreactivity
QVQLVESGGGLVQAGGSRRLSCAASGRSFTRYAMGWYRQAPGKERVLVAAITSSGRTYYADSVKGRFTISRDNAKNTVYLQMNRLKPEDTAVYYCAKYRANALNYANRGAGDYWGQGTQVTVSS	high polyreactivity
QVQLVESGGGLVQAGGSRRLSCAASGRTFRNYAMGWYRQAPGKERELVAAINFSGDGTYYADSVKGRFTISRDNAKNTVYLQMNSLKPEDTAVYYCAADVEYYRDVPQQVYVSDDYWGQGTQVTVSS	low polyreactivity
QVQLVESGGGLVQAGGSRRLSCAASGSIFDYYVMGWYRQAPVKERELVAAISWSGASTYSADSVKGRFTISRDNAKNTVYLQMNSLKPEDTAVYYCAADYGVNTLIDYDYWGQGTQVTVSS	low polyreactivity
QVQLVESGGGLVQAGGSRRLSCAASGSIFVKYAMGWYRQAPGKERELVAAISQSGVRTYYADSVKGRFTISRDNAKNTVYLQMNSLKPEDTAVYYSAAYSGYYYWGQGTQVTVSS	high polyreactivity
QVQLVESGGGLVQAGGSRRLSCAASGSISGYNAMGWYRQAPGKERELVAVITTDGSTNYADSVKGRFTISRDNAKNTVYLQMNSLKPEDTAVYYCADYVVWLYGYEYWGQGTQVTVSS	low polyreactivity
QVQLVESGGGLVQAGGSRRLSCAASGSISNRYAMGWYRPAPGKEREFVARIRRRGGSTNYADSVKGRFTISRDNAKKTVYLQMNSLKPEDTAVYYCNAYPYQLDYDYWGQGTQVTVSS	high polyreactivity
QVQLVESGGGLVQAGGSRRLSCAASGSISVGFTMGWYRQAPGKEWEFVAVITGTGGRTRYADSVKGRFTISRDNAKNTVYLQMNSLKPEDTAVYYCAAKIRWRGALYDYWGQGSQVTVSS	high polyreactivity
QVQLVESGGGLVQAGGSRRLSCAASGSTFARYPMGWYRQAPGKERELVATITRGGSTNYADSVKGRFTISRDNAKNTVYLQMNSLKPEDTAVYYCNARCGRSPYGYGDYYWGQGTQVTVSS	high polyreactivity
QVQLVESGGGLVQAGGSRSLSCAASGRNFYYYTMGWYRQAPGKERELVAAISWGGVNTDYADSVKGRFTISRDNAKNTVYLQMNSLKPEDTAVYYCAAGRWSVGTYDYWGQGTQVTVSS	low polyreactivity
QVQLVESGGGLVQAGGSSRLSCAASGRTFDDYAMGWYRQAPATERELVAAISSRGGSTYYADSVKGRFTISRDNAKHTVYLQMNSLKPEDTAVYYSNTLQSSHGSSQYDSWGQGTQVTVSS	low polyreactivity
QVQLVESGGGLVQAGGSVRLSCAASGFISPSYAMGWYRQAPGKERELVAAITTSGGSTYYADSVKGRFTISRDNAKNTVYLQMNSLIPEDTAVYYCAAVGPDNSLYEPMDYWGQGTQVTVSS	low polyreactivity

Sequence	polyreactivity (PSR sort gate)
QVQLVESGGGLVQAGGSVRLSCAASGFSFRLYVLGWYRQAPGTERELVAAISSLGGSTYYADSVKGRFTISRDNAKYTVDLQMNSLKPEDTAVYYCAADRPRGRETVDYWGHGTQVTVSS	high polyreactivity
QVQLVESGGGLVQAGGSVRLSCAASGNIFLRNAMGWYRQSPGKERELVAAIRRTGGSTYYADSVKGRFTISRDNAKTTVYLQMNSLKPEDTAVYYCAKRSYTGYEYWGQGTQVTVSS	low polyreactivity
QVQLVESGGGLVQAGGSVRLSCAASGRIFQPYAMGWYRQAPGKEREWVAAITRRAGSTYYADSVKGRFTISRDNALNTVYLQLNSLKPEDTAVSYCAARGLYWAYEMEYWGQGTQVTVSS	low polyreactivity
QVQLVESGGGLVQAGGSVRLSCAASGRILKVYPMGWYRQAPGKEWEFVAAISVNGGRTYYADSVKGRFTISRDNAKNTVYLQRQRLNPEDTAVYYCAKRLYKPGNVFYSVDQSDYWGQGTQVTVSS	low polyreactivity
QVQLVESGGGLVQAGGTHRLSCSASGFIFCKYAMGWYRQAPGKERELVAVITRSGSRTYYADSVKGRFTISRDNAKNTVYLQMNSLKPEDTAVYYCATENVYAYDYWGQGTQVTVSS	high polyreactivity
QVQLVESGGGLVQAGGTISLSCAASGRTYRNNAMGWYRQAPGKEMELVAAISRTGGRTYYADSVKGRFTISRDNAKNPVYLQMNSLKPEDSAVYYCNAAYLVREYDYWGQGTQVTVSS	high polyreactivity
QVQLVESGGGLVQAGGTLRLICAASGSTFGPYDMGWYRQAPGKERELVADITSGGSTYYADSVKGRFTISRDNAKNTVYLQMISLKPEDTAVYYCAADRVWPYYQYDYWGQGTQVTVSS	low polyreactivity
QVQLVESGGGLVQAGGTLRLSCAASGFIFAGYAMAWYRHAPGKERELVAASSWDGGSTYFADSVKGRFTISRDNAKHTVYLQMNSLIPEDTAGYYCAAKYFRHGPATYDYWGQGTQVTVSS	low polyreactivity
QVQLVESGGGLVQAGGTLRLSCAASGFIFRKYGMGWYRQAPGKERELVAAIRFTGGSTRYADSVKGRFTISRDNAKNTVYLQMNSLKPEDTAVYYCNADRVYVRGRFTYDYWGQGTQVTVSS	low polyreactivity
QVQLVESGGGLVQAGGTLRLSCAASGIIFDQNAMGWYRQAPGKERELVAAISWSGGGTYYADSVKGRFTISRDNAKNTVYLQMNSLKPEDTAVSYCAVEDMSHAYVQHYRFGYGYWGQGTQVTVSS	low polyreactivity
QVQLVESGGGLVQAGGTLRLSCAASGIIFDTYVMGWYRQAPGKERELVAAITRSGGRTRYADTVKGRFTISRYNAKNTVYLQMNSLKPEDTAVYYCAARIPDRQDGYGYWGQGTQVTVSS	high polyreactivity
QVQLVESGGGLVQAGGTLRLSCAASGLTFRYYAMGWYRQAPGKERELVAAITRRGSTYYADSVKGRFTISRDNAKNTVYFQMNSLKPEDTAVYYCATVTGFHSSPLRDLDYWGQGTQVTVSS	high polyreactivity
QVQLVESGGGLVQAGGTLRLSCAASGRIFQAYAMGWYRQAPGKERELVASISYRGGITYYADSVKGRFTISRDNAKNTVYLQMNSLKPEDTAVYYCAARSWYFSWEMYYWGQGTQVTVSS	high polyreactivity
QVQLVESGGGLVQAGGTLRLSCAASGRIFSKNAMGWYRQAPGKERELVARIRWTGGITYYADSVKGRFTISRDNAKNTVYLQMNSLKPEDTAVYYCAAGSYAGFAVIGYYYWGQGTQVTVSS	low polyreactivity
QVQLVESGGGLVQAGGTLRLSCAASGRTFGYNAMGWYRPAPGKERELVAVIRSGGSTYYADSVKGRFTISRDNAKNTVYLQMNSLKPEDTAVYYCAATGLYNVTSPYSYKYDYWGQGTQVTVSS	low polyreactivity
QVQLVESGGGLVQAGGTLRLSCAASGRTFNAYPMGWYRQAPGKERELVAAITSSGTSTYYADSVKGRFTISRDNAKNTVYLQMNSLKPEDTAVYYCAAPWGYWGQCTQVTVSS	low polyreactivity
